From patent publication US10125184B2, “Apolipoprotein E polypeptides and their use” (priority 2011, dated 2018)

Key:
SR-BI = assay: Immunoblot of SR-BI; assay type: cell-based
Procedure: FIGS. 4A-4C. (A) Huh7.5.1 cells seeded in a 12-well plate were treated with hEP-2 (20 μg/ml) for indicated time periods. Cells were stained with a mouse IgG (istotype control) or the anti-LDLR antibody followed by flow cytometric analysis. An overlay of 7 histograms is presented and the Δ median fluorescence intensity (ΔMFI, LDLR stain minus isotype control stain) of each sample is indicated to the upper right of the figure. (B) Cells were stained with anti-CD81 antibody and analyzed similarly as in A. (C) Immunonblots of SR-BI, CLDN1, and OCLN in the presence of hEP-2 or scrambled peptide.

HCVcc-luc = assay: Anti-HCV activity after pre-incubation of the peptide in cell culture; assay type: cell-based, Hepatitis C virus; settings: 20 μg/ml, 24 hours in culture before HCVcc-luc

B1: hEP: human apoE dual-domain peptide: helix 4 of N-terminal domain plus major lipid-binding region; expressed in bacteria (protein)
peptide: EELRVRLASHLRKLRKRLLRDADDLQKRLAVYEEQAQQIRLQAEAFQARLKSWFEPLVEDM
- Effect on level of SR-BI (SR-BI): did not affect
- Anti-HCV activity after being left in the culture (HCVcc-luc): largely retained
